Laboratory results: US20120317681A1

Columns and labels:
[1] = target: Cry1Ca receptor protein(s) / binding site on Brush Border Membrane Vesicles (BBMV's) from Spodoptera frugiperda (Spodoptera frugiperda); test: homologous competition; displacement of 0.5 nM 125I-labeled Cry1Ca core toxin from S. frugiperda BBMV (150 ug/mL)
[2] = target: Cry1Ca receptor protein(s) / binding site on Brush Border Membrane Vesicles (BBMV's) from Spodoptera frugiperda (Spodoptera frugiperda); test: heterologous competition; displacement of 0.5 nM 125I-labeled Cry1Ca core toxin from S. frugiperda BBMV (150 ug/mL)

In the case of “Cry1Ca core toxin protein (non-radiolabeled, trypsin-activated) (from UniProt P0A376 28-618) (ligand)”, the IC50 [1] is reported as 5 nM.
Substance “Cry1Fa core toxin protein (non-labeled, trypsin-activated) (from UniProt Q03746 28-605) (ligand)” has an IC50 [2] of over 300 nM.
